PMC12016517, “Transcriptional regulation of two redundant 3-bromo-4-hydroxybenzoate catabolic operons via two different regulatory modes in Pigmentiphaga kullae strain H8” (Applied and Environmental Microbiology, 2025)
Where “and” joins values, the source holds several entries; their conditions need not be identical. Identical values can stand only once. Values belong to the compound of their own block, whether it stands above or below them.

Key:
[1] = target: T1, BhbR2 (MarR-family transcription factor); experiment: SPR (Biacore T200, protein immobilized on CM7 chip, steady-state affinity); format: binding, Pigmentiphaga kullae
T1 construct: C-terminal His-tagged BhbR2 (179 amino acids), expressed in E. coli BL21(DE3)

[2] = target: T2, BhbR1 (LysR-type transcriptional regulator); experiment: as above; format: binding, Pigmentiphaga kullae
T2 construct: C-terminal His-tagged BhbR1 (302 amino acids), expressed in E. coli BL21(DE3)

[3] = tested on: T3, BhbR1 (LysR-type regulator) (Pigmentiphaga kullae H8), ORF:3710a82b; experiment: SPR; settings: EMSA BhbR1: 100 mM Tris-HCl pH 8.0, 50 mM KCl, 5% glycerol, 1 mM DTT, BhbR2: 50 mM Tris-HCl pH 8.0, 30 mM KCl, 1 mM EDTA, 5 mM DTT, 25 C, 30 min. …
T3 sequence: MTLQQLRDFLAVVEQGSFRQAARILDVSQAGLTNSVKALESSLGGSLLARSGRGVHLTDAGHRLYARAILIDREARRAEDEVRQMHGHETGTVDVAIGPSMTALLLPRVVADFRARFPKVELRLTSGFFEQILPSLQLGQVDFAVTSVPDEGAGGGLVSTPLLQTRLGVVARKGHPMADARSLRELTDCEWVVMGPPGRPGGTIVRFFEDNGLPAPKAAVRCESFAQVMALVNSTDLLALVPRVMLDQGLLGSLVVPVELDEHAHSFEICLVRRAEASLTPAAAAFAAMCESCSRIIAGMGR

[4] = tested on: BhbR2 (MarR-family regulator) (Pigmentiphaga kullae H8); experiment: SPR; settings: EMSA BhbR1: 100 mM Tris-HCl pH 8.0, 50 mM KCl, 5% glycerol, 1 mM DTT, BhbR2: 50 mM Tris-HCl pH 8.0, 30 mM KCl, 1 mM EDTA, 5 mM DTT, 25 C, 30 min. …
[5] = tested on: BhbR1 (LysR-type regulator) (Pigmentiphaga kullae H8); experiment: SPR; settings: EMSA BhbR1: 100 mM Tris-HCl pH 8.0, 50 mM KCl, 5% glycerol, 1 mM DTT, BhbR2: 50 mM Tris-HCl pH 8.0, 30 mM KCl, 1 mM EDTA, 5 mM DTT, 25 C, 30 min. …
[6] = tested on: T3, BhbR1 (LysR-type regulator) (Pigmentiphaga kullae H8), ORF:3710a82b; experiment: EMSA; settings: EMSA BhbR1: 100 mM Tris-HCl pH 8.0, 50 mM KCl, 5% glycerol, 1 mM DTT, BhbR2: 50 mM Tris-HCl pH 8.0, 30 mM KCl, 1 mM EDTA, 5 mM DTT, 25 C, 30 min. …
[7] = tested on: T4, BhbR2 (MarR-family regulator) (Pigmentiphaga kullae H8), ORF:e62c0bd9; experiment: EMSA; settings: EMSA BhbR1: 100 mM Tris-HCl pH 8.0, 50 mM KCl, 5% glycerol, 1 mM DTT, BhbR2: 50 mM Tris-HCl pH 8.0, 30 mM KCl, 1 mM EDTA, 5 mM DTT, 25 C, 30 min. …
T4 sequence: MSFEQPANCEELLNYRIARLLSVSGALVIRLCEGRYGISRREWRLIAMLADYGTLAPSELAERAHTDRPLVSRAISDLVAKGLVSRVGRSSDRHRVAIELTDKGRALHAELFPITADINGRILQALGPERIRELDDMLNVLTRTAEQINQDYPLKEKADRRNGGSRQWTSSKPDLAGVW

[8] = tested on: T4, BhbR2 (MarR-family regulator) (Pigmentiphaga kullae H8), ORF:e62c0bd9; experiment: SPR; settings: EMSA BhbR1: 100 mM Tris-HCl pH 8.0, 50 mM KCl, 5% glycerol, 1 mM DTT, BhbR2: 50 mM Tris-HCl pH 8.0, 30 mM KCl, 1 mM EDTA, 5 mM DTT, 25 C, 30 min. …
[9] = target: LysR-type transcriptional regulator BhbR1 (Pigmentiphaga kullae strain H8); experiment: SEC; gel filtration on Superose 6 10/300 GL, 25°C, PBS pH 7.8, 0.4 mL/min, calibrated with protein molecular weight markers; oligomeric state of the purified regulator
[10] = target: MarR-family transcription factor BhbR2 (Pigmentiphaga kullae strain H8); experiment: as above

Compound: O=C(O)c1ccc(O)c(Br)c1 [3-Br-4-HB, 3-bromo-4-hydroxybenzoate]
Kd [1]: 2100 nM
Kd [2]: 2200 nM

Compound: ACCAGCAAGGAACGTGCCCCGTGATCCGCGGTTGCTGATAGCAAACCGTTATCGAGATAAGGAAAAACTGGCTTTTCGCTGTGCGCGTGGATCGTGATACTGCCGCCGGGCCTGGATGAACGGGCCCGGCAACGGAACTACGAC (double strand) [Fphbh1 (Fpbhb1)]
Kd [3]: 0.7 nM and 1.2 nM

Compound: FpcaA2
Kd ([4]; 5 uM 3-Br-4-HB): 259 nM
Kd ([4]; no inducer): 397 nM

Compound: Fphbh1 (Fpbhb1)
Kd ([5]; 5 uM 3-Br-4-HB): 1.2 nM
Kd ([5]; no inducer): 0.7 nM

Compound: GAACTCGAGGTGCTGTCGATTTGTGCCATGTTGATCTCCTTCATGGACGCCGGCGGCTTCCACGCCTGCGTCCGGGGACGAGAAACTGCGGAAGCGTCGGGATACCAGCAAGGAACGTGCCCCGTGATCCGCGGTTGCTGATAGCAAACCGTTATCGAGATAAGGAAAAACTGGCTTTTCGCTGTGCGCGTGGATCGTGATACTGCCGCCGGGCCTGGATGAACGGGCCCGGCAACGGAACTACGACCCACGACTAGTTTC (double strand) [PbR1 (Pphbh1 promoter probe, EMSA)]
binding [6]: binds

Compound: GAACTCGAGTGATGCCGTAGCGGCCTTCGCACAACCGGATCACCAGCGCCCCGCTGACCGACAGCAGCCTGGCTATCCGGTAGTTCAGGAGTTCCTCGCAATTTGCGGGCTGCTCGAAGGACATGGCTGCTCCTGTGCCGACGGCGGTTGATTAGAACAATCAAGGACATGAAAGCTAGAGTCATTCTCCATAAAAAGCCCAGCAGCCGCAACGCCATACGCCGGCGCGGCCCTGGTCGTTTTCCCTCTACCCAAGGAGCATTGCCCACTAGTTTC (double strand) [PbR2 (PpcaA2 promoter probe, EMSA)]
binding [7]: binds

Compound: GGGCAATGCTCCTTGGGTAGAGGGAAAACGACCAGGGCCGCGCCGGCGTATGGCGTTGCGGCTGCTGGGCTTTTTATGGAGAATGACTCTAGCTTTCATGTCCTTGATTGTTCTAATCAACCGCCGTCGGCACAGGAGCAGCCATGTCCTTCG (double strand) [FpcaA2]
Kd [8]: 397 nM and 259 nM

stoichiometry N [9]: 4
Compound: LysR-type transcriptional regulator BhbR1 (natural protein)

stoichiometry N [10]: 2
Compound: MarR-family transcription factor BhbR2 (natural protein)

Compound: TAATCCGACATCGGCCGCTCCAATAGTGAGAGGTCTTGCGATCCCCCCCTTTCCCCCGTAGGGCGTATGCGGTATTAGCTACGCTTTCGCGTAGTTATCCCCCGCTACTGGGCACGTTCCGATGCATTACTCACCCGTTCGCCACTCGCCGC (double strand) [Pb16S]
binding [6]: no binding
binding [7]: no binding
